Biological target: T1, GST (UniProt P08515 1-218 = GST)
T1 construct: Control of the GST pull-down
Test: GST pull-down on glutathione-agarose beads, SDS-PAGE and Sypro Ruby stain
Method: The proteins bound to the beads were separated by SDS-PAGE and stained with Sypro Ruby.
Four micrograms of the GST fusion protein was mixed with 4 μg of His-BARD1¹⁴⁻¹⁸⁹ and 25 μl of glutathione-agarose beads in 1 ml of a buffer containing 50 mM Tris-HCl (pH 7.5), 0.5% NP-40, 150 mM NaCl, 50 mM NaF and 1 mM dithiothreitol. After rotation at 4° C. for 2 hours, GST fusion proteins bound to glutathione-agarose beads were washed three times and subsequently eluted with SDS-PAGE loading buffer.

T1 sequence (P08515 whole entry): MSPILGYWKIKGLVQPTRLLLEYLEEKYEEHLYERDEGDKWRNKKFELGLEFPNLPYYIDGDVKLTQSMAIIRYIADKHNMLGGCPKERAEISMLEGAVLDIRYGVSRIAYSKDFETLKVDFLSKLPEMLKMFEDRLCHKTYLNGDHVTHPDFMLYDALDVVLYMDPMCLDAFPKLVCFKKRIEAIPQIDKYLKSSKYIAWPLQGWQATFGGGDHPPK

B1: His-BARD1^14-189 (other)
chain: IRSGNEPRSAPAMEPDGRGAWAHSRAALDRLEKLLRCSRCTNILREPVCLGGCEHIFCSNCVSDCIGTGCPVCYTPAWIQDLKINRQLDSMIQLCSKLRNLLHDNELSDLKEDKPRKSLFNDAGNKKNSIKMWFSPRSKKVRYVVSKASVQTQPAIKKDASAQQDSYEFVSPSPPA
notes: Bacterially expressed recombinant protein; not shown: His tag
**Q.** Does B1 bind?
**A.** no binding (tested: 4 µg of each protein in 1 ml)
